Source: patent US20220119489A1, “COMPOSITIONS AND METHODS FOR […] […] DYSTROPHY AND RELATED DISORDERS” (CHILDREN'S MEDICAL CENTER CORPORATION, published 2022)

Target: CD82 (mouse) (mouse, UniProt P40237)
Experiment: IP with anti CD82 antibodies, mouse muscle tissue, mass spectrometry

Row | Total | Unique | Binder
1 | 25 | 7 | IGHG_RABIT (other) GQPKAPSVFPLAPCCGDTPSSTVTLGCLVKGYLPEPVTVTWNSGTLTNGVRTFPSVRQSSGLYSLSSVVSVTSSSQPVTCNVAHPATNTKVDKTVAPSTCSKPTCPPPELLGGPSVFIFPPKPKDTLMISRTPEVTCVVVDVSQDDPEVQFTWYINNEQVRTARPPLREQQFNSTIRVVSTLPITHQDWLRGKEFKCKVHNKALPAPIEKTISKARGQPLEPKVYTMGPPREELSSRSVSLTCMINGFYPSDISVEWEKNGKAEDNYKTTPAVLDSDGSYFLYNKLSVPTSEWQRGDVFTCSVMHEALHNHYTQKSISRSPGK
2 | 7 | 7 | ENOB_MOUSE (enzyme) AMQKIFAREILDSRGNPTVEVDLHTAKGRFRAAVPSGASTGIYEALELRDGDKARYLGKGVLKAVEHINKTLGPALLEKKLSVVDQEKVDKFMIELDGTENKSKFGANAILGVSLAVCKAGAAEKGVPLYRHIADLAGNPDLVLPVPAFNVINGGSHAGNKLAMQEFMILPVGASSFKEAMRIGAEVYHHLKGVIKAKYGKDATNVGDEGGFAPNILENNEALELLKTAIQAAGYPDKVVIGMDVAASEFYRNGKYDLDFKSPDDPARHISGEKLGELYKNFIQNYPVVSIEDPFDQDDWATWTSFLSGVDIQIVGDDLTVTNPKRIAQAVEKKACNCLLLKVNQIGSVTESIQACKLAQSNGWGVMVSHRSGETEDTFIADLVVGLCTGQIKTGAPCRSERLAKYNQLMRIEEALGDKAVFAGRKFRNPKAK
3 | 2 | 2 | Annexin 1 (mouse) (other) AMVSEFLKQARFLENQEQEYVQAVKSYKGGPGSAVSPYPSFNVSSDVAALHKAIMVKGVDEATIIDILTKRTNAQRQQIKAAYLQENGKPLDEVLRKALTGHLEEVVLAMLKTPAQFDADELRGAMKGLGTDEDTLIEILTTRSNEQIREINRVYREELKRDLAKDITSDTSGDFRKALLALAKGDRCQDLSVNQDLADTDARALYEAGERRKGTDVNVFTTILTSRSFPHLRRVFQNYGKYSQHDMNKALDLELKGDIEKCLTTIVKCATSTPAFFAEKLYEAMKGAGTRHKALIRIMVSRSEIDMNEIKVFYQKKYGISLCQAILDETKGDYEKILVALCGGN
4 | 2 | 2 | FBX50_MOUSE (other) MEKTQDRDTLSGRMEAEGSLNSEELPPHPQSPPPPPSPRSPTSPVTPELPQPNAPTEVEARQLLVEEWGPLSGKLELPPRISWQLLFLERPLYRNLLSSPNPEGINIYQPAPPTGPTRKPLKELGNFRGWYITTQNLQGPLSWTVKEQCVNLLAKKLWEELLDDEQPDITIMDWFEDSRLDQCVYELHVWLLAADRRTVIAQHHVAPRTNGRGPPGRWIQVSHVFRQYGPGVRFVYFQHKAKNRMEPGGLRRTRVTDSSVSVQLRE
5 | 1 | 1 | Annexin 2 (mouse) (other) STVHEILCKLSLEGDHSTPPSAYGSVKPYTNFDAERDALNIETAVKTKGVDEVTIVNILTNRSNVQRQDIAFAYQRRTKKELPSALKSALSGHLETVILGLLKTPAQYDASELKASMKGLGTDEDSLIEIICSRTNQELQEINRVYKEMYKTDLEKDIISDTSGDFRKLMVALAKGRRAEDGSVIDYELIDQDARELYDAGVKRKGTDVPKWISIMTERSVCHLQKVFERYKSYSPYDMLESIKKEVKGDLENAFLNLVQCIQNKPLYFADRLYDSMKGKGTRDKVLIRIMVSRSEVDMLKIRSEFKRKYGKSLYYYIQQDTKGDYQKALLYLCGGDD

The next lines start with the binder.

Row | Binder | Total | Unique
6 | Creatine Kinase, Muscle type (enzyme) not shown | 14 | 11
7 | ALDOA_MOUSE (enzyme) PHPYPALTPEQKKELSDIAHRIVAPGKGILAADESTGSIAKRLQSIGTENTEENRRFYRQLLLTADDRVNPCIGGVILFHETLYQKADDGRPFPQVIKSKGGVVGIKVDKGVVPLAGTNGETTTQGLDGLSERCAQYKKDGADFAKWRCVLKIGEHTPSALAIMENANVLARYASICQQNGIVPIVEPEILPDGDHDLKRCQYVTEKVLAAVYKALSDHHVYLEGTLLKPNMVTPGHACTQKFSNEEIAMATVTALRRTVPPAVTGVTFLSGGQSEEEASINLNAINKCPLLKPWALTFSYGRALQASALKAWGGKKENLKAAQEEYIKRALANSLACQGKYTPSGQSGAAASESLFISNHAY | 3 | 3
8 | PRDX1_MOUSE (enzyme) SSGNAKIGYPAPNFKATAVMPDGQFKDISLSEYKGKYVVFFFYPLDFTFVCPTEIIAFSDRADEFKKLNCQVIGASVDSHFCHLAWINTPKKQGGLGPMNIPLISDPKRTIAQDYGVLKADEGISFRGLFIIDDKGILRQITINDLPVGRSVDEIIRLVQAFQFTDKHGEVCPAGWKPGSDTIKPDVNKSKEYFSKQK | 3 | 2
9 | ENOA_MOUSE (enzyme) SILRIHAREIFDSRGNPTVEVDLYTAKGLFRAAVPSGASTGIYEALELRDNDKTRFMGKGVSQAVEHINKTIAPALVSKKVNVVEQEKIDKLMIEMDGTENKSKFGANAILGVSLAVCKAGAVEKGVPLYRHIADLAGNPEVILPVPAFNVINGGSHAGNKLAMQEFMILPVGASSFREAMRIGAEVYHNLKNVIKEKYGKDATNVGDEGGFAPNILENKEALELLKTAIAKAGYTDQVVIGMDVAASEFYRSGKYDLDFKSPDDPSRYITPDQLADLYKSFVQNYPVVSIEDPFDQDDWGAWQKFTASAGIQVVGDDLTVTNPKRIAKAASEKSCNCLLLKVNQIGSVTESLQACKLAQSNGWGVMVSHRSGETEDTFIADLVVGLCTGQIKTGAPCRSERLAKYNQILRIEEELGSKAKFAGRSFRNPLAK | 2 | 2
10 | CISY_MOUSE (enzyme) ASSTNLKDVLSNLIPKEQARIKTFKQQHGKTVVGQITVDMMYGGMRGMKGLVYETSVLDPDEGIRFRGYSIPECQKMLPKAKGGEEPLPEGLFWLLVTGQMPTEEQVSWLSREWAKRAALPSHVVTMLDNFPTNLHPMSQLSAAITALNSESNFARAYAEGMNRAKYWELIYEDCMDLIAKLPCVAAKIYRNLYREGSSIGAIDSRLDWSHNFTNMLGYTDPQFTELMRLYLTIHSDHEGGNVSAHTSHLVGSALSDPYLSFAAAMNGLAGPLHGLANQEVLVWLTQLQKEVGKDVSDEKLRDYIWNTLNSGRVVPGYGHAVLRKTDPRYSCQREFALKHLPKDPMFKLVAQLYKIVPNILLEQGKAKNPWPNVDAHSGVLLQYYGMTEMNYYTVLFGVSRALGVLAQLIWSRALGFPLERPKSMSTDGLMKFVDSK | 2 | 2
11 | EF1A1_MOUSE (other) GKEKTHINIVVIGHVDSGKSTTTGHLIYKCGGIDKRTIEKFEKEAAEMGKGSFKYAWVLDKLKAERERGITIDISLWKFETSKYYVTIIDAPGHRDFIKNMITGTSQADCAVLIVAAGVGEFEAGISKNGQTREHALLAYTLGVKQLIVGVNKMDSTEPPYSQKRYEEIVKEVSTYIKKIGYNPDTVAFVPISGWNGDNMLEPSANMPWFKGWKVTRKDGSASGTTLLEALDCILPPTRPTDKPLRLPLQDVYKIGGIGTVPVGRVETGVLKPGMVVTFAPVNVTTEVKSVEMHHEALSEALPGDNVGFNVKNVSVKDVRRGNVAGDSKNDPPMEAAGFTAQVIILNHPGQISAGYAPVLDCHTAHIACKFAELKEKIDRRSGKKLEDGPKFLKSGDAAIVDMVPGKPMCVESFSDYPPLGRFAVRDMRQTVAVGVIKAVDKKAAGAGKVTKSAQKAQKAK | 2 | 2
12 | LYZ1_MOUSE (enzyme) KVYNRCELARILKRNGMDGYRGVKLADWVCLAQHESNYNTRATNYNRGDRSTDYGIFQINSRYWCNDGKTPRSKNACGINCSALLQDDITAAIQCAKRVVRDPQGIRAWVAWRTQCQNRDLSQYIRNCGV | 1 | 1
13 | IGG2B_MOUSE (other) KTTPPSVYPLAPGCGDTTGSSVTLGCLVKGYFPESVTVTWNSGSLSSSVHTFPALLQSGLYTMSSSVTVPSSTWPSQTVTCSVAHPASSTTVDKKLEPSGPISTINPCPPCKECHKCPAPNLEGGPSVFIFPPNIKDVLMISLTPKVTCVVVDVSEDDPDVQISWFVNNVEVHTAQTQTHREDYNSTIRVVSTLPIQHQDWMSGKEFKCKVNNKDLPSPIERTISKIKGLVRAPQVYILPPPAEQLSRKDVSLTCLVVGFNPGDISVEWTSNGHTEENYKDTAPVLDSDGSYFIYSKLNMKTSKWEKTDSFSCNVRHEGLKNYYLKKTISRSPGK | 1 | 1
14 | QCR2_MOUSE (other) SLKVAPKVKTSAAPGGVPLQPQDLEFTKLPNGLVIASLENYAPLSRIGLFVKAGSRYEDSNNLGTSHLLRLASSLTTKGASSFKITRGIEAVGGKLSVTATRENMAYTVEGIRSDIEILMEFLLNVTTAPEFRRWEVAALRSQLKIDKAVAFQNSQTRIIENLHDVAYKNALANPLYCPDYRMGKITSEELHYFVQNHFTSARMALVGLGVSHSVLKQVAEQFLNMRGGLGLAGAKAKYRGGEIREQNGDNLVHAAIVAESAAIGNAEANAFSVLQHLLGAGPHIKRGNNTTSLLSQSVAKGSHQPFDVSAFNASYSDSGLFGIYTISQAAAAGEVINAAYNQVKAVAQGNLSSADVQAAKNKLKAGYLMSVETSEGFLSEIGSQALAAGSYMPPSTVLQQIDSVADADVVKAAKKFVSGKKSMAASGNLGHTPFLDEL | 1 | 1
